From the supplement of paper PMC5949888

Test system: Saccharomyces cerevisiae PS128 hsf1 delta, HSF1(1-493) fusion
Experiment: growth estimate (transactivation domain function in HSF1 fusion, heat-shock survival) (a.u. (slope of normalised read count over time)); higher = stronger growth at 37°C, i.e. more transactivation activity
Details: library: design library
Method in brief: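 Transactivation-domain oligos were designed and fused to a truncated yeast HSF1 (amino acids 1–493), then expressed in a yeast strain lacking hsf1. Replica plating onto –trp 5-FOA plates was followed by incubation at 30°C or 37°C for 0, 2, 4, 6 and 8 days. Inserts were amplified by PCR and sequenced on an Illumina MiSeq as six barcoded replicates from a single experiment. The growth estimate is the slope of a robust linear fit over time of read counts normalised to sample totals and to starting count.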

Row | Sequence | growth estimate
1 | EFGDLLDLDFILSN | 0.032
2 | EFKDLLDLDFILSN | 0.512
3 | EFNDGLDLDFILSN | -0.0825
4 | EFNDKLDLDFILSN | < -0.25
5 | EFNDLADLDFILSN | 0.121
6 | EFNDLGDLDFILSN | -0.0268
7 | EFNDLLALDFILSN | -0.112
8 | EFNDLLDKDFILSN | -0.227
9 | EFNDLLDLAFILSN | -0.217
10 | EFNDLLDLDAILSN | 0.353
11 | EFNDLLDLDFALSN | 3.84
12 | EFNDLLDLDFGLSN | 4.29
13 | EFNDLLDLDFIASN | 0.58
14 | EFNDLLDLDFIGSN | 2.81
15 | EFNDLLDLDFIKSN | -0.165
16 | EFNDLLDLDFILAN | < -0.25
17 | EFNDLLDLDFILGN | 4.09
18 | EFNDLLDLDFILKN | 2.1
19 | EFNDLLDLDFILPN | 10.7
20 | EFNDLLDLDFILRN | 5.09
21 | EFNDLLDLDFILSA | -0.12
22 | EFNDLLDLDFILSG | 1.41
23 | EFNDLLDLDFILSK | 0.632
24 | EFNDLLDLDFILSN | 1.51
25 | EFNDLLDLDFILSP | -0.228
26 | EFNDLLDLDFILSR | 0.761

Row | Sequence | growth estimate
27 | EFNDLLDLDFIPSN | 0.874
28 | EFNDLLDLDFIRSN | -0.0675
29 | EFNDLLDLDFKLSN | -0.099
30 | EFNDLLDLDFPLSN | 1.64
31 | EFNDLLDLDFRLSN | 0.0126
32 | EFNDLLDLDKILSN | -0.21
33 | EFNDLLDLDPILSN | -0.247
34 | EFNDLLDLDRILSN | 0.151
35 | EFNDLLDLGFILSN | -0.244
36 | EFNDLLDLKFILSN | -0.169
37 | EFNDLLDLRFILSN | < -0.25
38 | EFNDLLDPDFILSN | -0.0736
39 | EFNDLLDRDFILSN | -0.0427
40 | EFNDLLGLDFILSN | < -0.25
41 | EFNDLLKLDFILSN | -0.0935
42 | EFNDLLPLDFILSN | < -0.25
43 | EFNDLLRLDFILSN | < -0.253
44 | EFNDLPDLDFILSN | -0.195
45 | EFNDLRDLDFILSN | -0.248
46 | EFNDPLDLDFILSN | -0.119
47 | EFNDRLDLDFILSN | -0.246
48 | EFNGLLDLDFILSN | -0.173
49 | EFNKLLDLDFILSN | < -0.25
50 | EFNPLLDLDFILSN | < -0.25
51 | EFNRLLDLDFILSN | < -0.25
52 | EFPDLLDLDFILSN | 0.17

Row | Sequence | growth estimate
53 | EFRDLLDLDFILSN | 0.421
54 | EGDDEFSLWDSML | 0.054
55 | EGNDLLDLDFILSN | 0.62
56 | EKDDEFSLWDSML | -0.193
57 | EKLYSILWSDVY | -0.183
58 | EPDDEFSLWDSML | 0.531
59 | EPLYSILWSDVY | -0.136
60 | EPNDLLDLDFILSN | 0.229
61 | ERDDEFSLWDSML | 0.267
62 | ERLYSILWSDVY | < -0.25
63 | ERNDLLDLDFILSN | -0.237
64 | GADDIWEELLSEDL | 1.28
65 | GDDDEFSLWDSML | 1.64
66 | GDLYSILWSDVY | -0.212
67 | GEFPGIELQELQELQALLQQ | -0.114
68 | GELSWIIELLEKDG | -0.152
69 | GFDLDMLGDFDLDMLG | 1.03
70 | GFDYDFLFGNDFA | 8.74
71 | GFNDLLDLDFILSN | -0.0099
72 | GFPDTQDDFLKWWRSEEAQ | -0.128
73 | GLDESWDYIFETTE | 1.28
74 | GLSSHGFSVDTSALLDLFSP | 0.18
75 | GMDDVYNYLFDD | 0.253
76 | GQNGEIAQLWDFN | < -0.25
77 | KADDIWEELLSEDL | 0.514
78 | KDDDEFSLWDSML | 0.429

Row | Sequence | growth estimate
79 | KDLYSILWSDVY | -0.212
80 | KEFPGIELQELQELQALLQQ | < -0.25
81 | KELSWIIELLEKDG | -0.245
82 | KFDLDMLGDFDLDMLG | 0.164
83 | KFDYDFLFGNDFA | 1.06
84 | KFNDLLDLDFILSN | 0.326
85 | KFPDTQDDFLKWWRSEEAQ | -0.0955
86 | KLDESWDYIFETTE | -0.0907
87 | KLSSHGFSVDTSALLDLFSP | -0.241
88 | KMDDVYNYLFDD | -0.148
89 | KQNGEIAQLWDFN | < -0.25
90 | LADYDFLFGNDFA | 2.67
91 | LFAYDFLFGNDFA | 0.948
92 | LFDADFLFGNDFA | 0.761
93 | LFDGDFLFGNDFA | 1.7
94 | LFDKDFLFGNDFA | -0.177
95 | LFDYAFLFGNDFA | 2.15
96 | LFDYDALFGNDFA | 0.627
97 | LFDYDFGFGNDFA | 1.76
98 | LFDYDFKFGNDFA | -0.229
99 | LFDYDFLAGNDFA | 0.0054
100 | LFDYDFLFANDFA | 2.92
101 | LFDYDFLFGADFA | 1.91
